From US20230183366A1

Molecular target: Cohesin-human OX40 ectodomain protein (human) (UniProt P43489)
Assay: SPR, antibody captured on protein A, soluble cohesin-human OX40 ectodomain injected

Sequence of UniProt P43489 (P43489 26-211 limits assumed, form in doubt): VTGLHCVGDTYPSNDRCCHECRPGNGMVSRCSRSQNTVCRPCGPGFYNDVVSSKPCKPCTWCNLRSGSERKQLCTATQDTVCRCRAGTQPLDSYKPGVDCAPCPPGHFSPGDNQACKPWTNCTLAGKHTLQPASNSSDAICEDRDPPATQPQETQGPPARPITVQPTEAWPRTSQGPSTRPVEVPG

B1: humanized anti OX40 Ab24 IgG1 (antibody, V domains shown)
VH: QVQLQESGPGLVKPSQTLSLTCAVYGGSFSSGYWNWIRKHPGKGLEYIGYISYNGITYHNPSLKSRITINRDTSKNQYSLQLNSVTPEDTAVYYCARYKYDYDGGHAMDYWGQGTLVTVSS
VL: DIQMTQSPSSLSASVGDRVTITCRASQDISNYLNWYQQKPGKAPKLLIYYTSKLHSGVPSRFSGSGSGTDYTLTISSLQPEDFATYYCQQGSALPWTFGQGTKVEIKR
  Kd: 131 nM
  bracketed ratio of KD relative to Anti-OX40 IgG1: 1
  bracketed ratio of Ka relative to Anti-OX40 IgG1: 1
  bracketed ratio of kd relative to Anti-OX40 IgG1: 1
  koff: 0.0019 s⁻¹
  kon: 14000 M⁻¹ s⁻¹
